Results taken from US20230136723A1.
Blank lines part the entries; values can stand above or below the molecule they belong to.

Key:
human CTLA-4 (human) = human CTLA-4 (human) (UniProt P16410); assay: flow cytometry, transfected cells
human PD-L1 (human) = human PD-L1 (human) (UniProt Q9NZQ7); assay: flow cytometry, transfected cells
[1] = target: human PD-L1, full-length, expressed on transfected Expi293F cells (human) (UniProt Q9NZQ7); assay: flow cytometry, PD-L1-transfected Expi293 cells
[2] = target: human PD-L1, full-length, expressed on transfected Expi293F cells (human) (UniProt Q9NZQ7); assay: flow cytometry, PD-L1-transfected cells; MFI over WT CD80 ECD-Fc
human CD28 (human) [3] = target: human CD28 (human) (UniProt P10747); assay: flow cytometry on transfected cells
human CD28 (human) [4] = target: human CD28 (human) (UniProt P10747); assay: flow cytometry; ratio to WT stack m3

Sequence of UniProt P16410 (P16410 36-223): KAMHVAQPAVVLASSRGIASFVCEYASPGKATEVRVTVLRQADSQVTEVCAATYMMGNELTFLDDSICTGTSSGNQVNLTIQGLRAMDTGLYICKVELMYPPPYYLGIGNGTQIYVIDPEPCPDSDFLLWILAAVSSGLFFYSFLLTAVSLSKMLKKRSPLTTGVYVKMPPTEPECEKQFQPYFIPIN

Molecule: variant CD80 ECD-Fc fusion A91G/S103P
MFI [1]: 9 MFI

B1: Domain 1: CD80 I67T/L70Q/A91G/T120S / Domain 2: CD80 E88D/K89R/D90K/A91G/F92Y/K93R / Fc (Fc fusion)
chain: VIHVTKEVKEVATLSCGHNVSVEELAQTRIYWQKEKKMVLTMMSGDMNIWPEYKNRTIFDITNNLSTVIQALRPSDEGTYECVVLKYEKDGFKREHLAEVTLSVKADFPTPSISDFEIPGGGGSGGGGSGGGGSVIHVTKEVKEVATLSCGHNVSVEELAQTRIYWQKEKKMVLTMMSGDMNIWPEYKNRTIFDITNNLSIVILALRPSDEGTYECVVLKYDRKGYRREHLAEVTLSVKADFPTPSISDFEIPGGGGSGGGGSAAAEPKSSDKTHTCPPCPAPELLGGPSVFLFPPKPKDTLMISRTPEVTCVVVDVSHEDPEVKFNWYVDGVEVHNAKTKPCEEQYGSTYRCVSVLTVLHQDWLNGKEYKCKVSNKALPAPIEKTISKAKGQPREPQVYTLPPSREEMTKNQVSLTCLVKGFYPSDIAVEWESNGQPENNYKTTPPVLDSDGSFFLYSKLTVDKSRWQQGNVFSCSVMHEALHNHYTQKSLSLSPGK
MFI (human CD28 (human) [3]): 938 MFI | WT parental MFI ratio (human CD28 (human) [4]): 0.57

The next lines start with the values.

MFI (human CTLA-4 (human)): 2180 | MFI (human PD-L1 (human)): 100000
Molecule: variant CD80 ECD-Fc H18L/R29D/Y31L/Q33H/K36G/M38I/T41A/M43R/M47T/E81V/L85R/K89N/A91T/F92P/K93V/R94L/L97R/T130A/N149S (Fc fusion)

MFI [1]: 9 MFI | MFI parental ratio [2]: 0.13
Molecule: variant CD80 ECD-Fc fusion V20L/L70Q/A91S/I118V/T120S/T130A
